What all share (assay): ELISA
Background: An ELISA detects its analyte on a solid surface through an enzyme-linked reagent.

In one assay the target is C1q. The note with it: Ab 20 µg/ml (highest point of the titration); parent: est. 1.7; read off a plot.
In another assay the target is human FcγRI (UniProt P12314). The following applies: Fc 20 µg/ml (highest point of the titration); parent: est. 2.1; read off a plot.
A further assay has as its target human FcγRIIA (UniProt P12318). The following applies: Fc 20 µg/ml (highest point of the titration); parent: est. 0.53; read off a plot.
The next assay addresses human FcγRIIB (UniProt P31994). The note with it: Fc 20 µg/ml (highest point of the titration); parent: est. 0.20; read off a plot.
The target in another assay is human FcγRIIIA (UniProt P08637). The following applies: Fc 20 µg/ml (highest point of the titration); parent: est. 0.99; read off a plot.
For another assay, the target named is human FcγRIIIB (UniProt O75015). The note with it: Fc 20 µg/ml (highest point of the titration); parent: est. 0.19; read off a plot.
Another assay has as its target human Siglec-1 (UniProt Q9BZZ2). The following applies: Fc 50 µg/ml (highest point of the titration); parent: est. 1.2; read off a plot.
Assay [1] concerns the target soluble recombinant tetrameric human DC-SIGN (UniProt Q9NNX6). The note with it: Fc 20 µg/ml (highest point of the titration); parent: est. 0.98; read off a plot.

Sequence of human FcγRI (P12314 16-292): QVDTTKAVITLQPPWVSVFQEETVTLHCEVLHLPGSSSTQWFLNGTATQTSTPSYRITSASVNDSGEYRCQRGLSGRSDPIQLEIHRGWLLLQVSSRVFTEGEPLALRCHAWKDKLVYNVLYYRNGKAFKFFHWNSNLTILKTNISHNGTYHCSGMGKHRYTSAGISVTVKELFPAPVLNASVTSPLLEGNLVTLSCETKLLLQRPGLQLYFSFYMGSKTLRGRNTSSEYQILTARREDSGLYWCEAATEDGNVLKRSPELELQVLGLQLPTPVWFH
Sequence of human Siglec-1 (Q9BZZ2 20-1641): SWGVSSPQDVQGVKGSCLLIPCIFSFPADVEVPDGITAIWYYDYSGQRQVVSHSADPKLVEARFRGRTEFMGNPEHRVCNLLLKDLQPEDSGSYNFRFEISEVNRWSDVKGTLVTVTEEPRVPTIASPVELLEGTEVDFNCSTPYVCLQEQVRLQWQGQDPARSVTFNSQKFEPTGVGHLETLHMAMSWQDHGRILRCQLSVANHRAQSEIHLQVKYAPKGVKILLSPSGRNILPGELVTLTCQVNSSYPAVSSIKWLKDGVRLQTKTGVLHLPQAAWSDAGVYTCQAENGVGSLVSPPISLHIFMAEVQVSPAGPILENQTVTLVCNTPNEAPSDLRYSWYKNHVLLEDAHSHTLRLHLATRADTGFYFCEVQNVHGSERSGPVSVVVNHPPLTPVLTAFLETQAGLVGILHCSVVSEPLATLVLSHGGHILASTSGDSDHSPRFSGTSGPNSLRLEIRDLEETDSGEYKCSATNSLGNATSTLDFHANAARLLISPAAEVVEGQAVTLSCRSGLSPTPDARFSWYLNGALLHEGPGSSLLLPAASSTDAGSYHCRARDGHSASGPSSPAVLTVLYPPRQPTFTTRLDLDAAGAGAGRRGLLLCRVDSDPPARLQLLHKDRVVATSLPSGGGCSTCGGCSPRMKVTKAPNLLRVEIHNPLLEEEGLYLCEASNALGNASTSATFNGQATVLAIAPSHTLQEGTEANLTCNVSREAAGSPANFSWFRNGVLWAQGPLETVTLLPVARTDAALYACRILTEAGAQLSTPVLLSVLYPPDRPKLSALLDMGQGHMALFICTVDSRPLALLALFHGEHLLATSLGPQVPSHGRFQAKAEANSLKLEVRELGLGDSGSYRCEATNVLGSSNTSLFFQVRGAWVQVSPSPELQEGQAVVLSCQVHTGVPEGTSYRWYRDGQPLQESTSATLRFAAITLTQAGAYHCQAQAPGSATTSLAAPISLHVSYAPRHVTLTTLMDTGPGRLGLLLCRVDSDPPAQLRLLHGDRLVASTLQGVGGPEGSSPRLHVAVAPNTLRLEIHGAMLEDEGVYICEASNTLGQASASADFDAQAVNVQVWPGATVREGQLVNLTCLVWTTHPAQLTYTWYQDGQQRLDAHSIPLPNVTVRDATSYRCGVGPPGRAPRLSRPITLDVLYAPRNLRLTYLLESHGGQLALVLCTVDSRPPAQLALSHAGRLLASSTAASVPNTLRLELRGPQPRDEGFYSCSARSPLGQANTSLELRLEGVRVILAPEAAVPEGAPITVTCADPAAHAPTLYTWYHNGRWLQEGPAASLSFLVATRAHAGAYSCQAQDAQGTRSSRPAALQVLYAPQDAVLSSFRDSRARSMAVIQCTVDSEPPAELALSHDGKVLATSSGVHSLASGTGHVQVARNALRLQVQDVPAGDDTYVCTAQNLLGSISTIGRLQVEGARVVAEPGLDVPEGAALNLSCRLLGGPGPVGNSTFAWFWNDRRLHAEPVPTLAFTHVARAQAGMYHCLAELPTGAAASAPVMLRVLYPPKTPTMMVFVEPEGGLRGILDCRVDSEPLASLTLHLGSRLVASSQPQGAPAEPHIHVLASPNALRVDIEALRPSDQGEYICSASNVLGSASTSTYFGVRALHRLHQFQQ
Sequence of human FcγRIIIA (P08637 17-208): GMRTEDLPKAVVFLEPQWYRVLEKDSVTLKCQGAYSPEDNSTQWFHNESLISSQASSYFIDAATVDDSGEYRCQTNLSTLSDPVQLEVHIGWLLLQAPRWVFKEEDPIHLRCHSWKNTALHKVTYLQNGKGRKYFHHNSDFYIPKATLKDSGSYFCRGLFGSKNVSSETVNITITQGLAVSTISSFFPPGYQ
Sequence of human FcγRIIIB (O75015 17-200): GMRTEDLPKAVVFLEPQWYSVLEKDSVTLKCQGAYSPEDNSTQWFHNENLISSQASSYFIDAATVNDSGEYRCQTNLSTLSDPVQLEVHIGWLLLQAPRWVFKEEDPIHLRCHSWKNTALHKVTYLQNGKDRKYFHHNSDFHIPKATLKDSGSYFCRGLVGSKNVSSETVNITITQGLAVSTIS
Sequence of human FcγRIIA (P12318 34-217): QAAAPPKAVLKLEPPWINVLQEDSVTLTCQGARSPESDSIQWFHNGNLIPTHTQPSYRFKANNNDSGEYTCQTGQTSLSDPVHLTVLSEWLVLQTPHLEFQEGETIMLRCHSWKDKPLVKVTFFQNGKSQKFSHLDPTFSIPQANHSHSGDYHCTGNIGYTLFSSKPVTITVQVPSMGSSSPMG
Sequence of human FcγRIIB (P31994 43-217): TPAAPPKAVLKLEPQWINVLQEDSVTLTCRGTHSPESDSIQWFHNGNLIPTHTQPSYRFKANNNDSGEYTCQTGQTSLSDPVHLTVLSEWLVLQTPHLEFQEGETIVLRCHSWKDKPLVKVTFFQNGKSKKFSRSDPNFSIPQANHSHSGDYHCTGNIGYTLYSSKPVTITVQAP

Consider “hexa-Fc (human IgG1-Fc with L309C/H310L and the 18-amino acid IgM tail piece) D221N; N297A”, for which the response stood at 0.93 OD 405nm in the assay with C1q; 0.065 OD 405nm with human FcγRI; 0.065 OD 405nm in the assay with human FcγRIIA; 0.069 OD 405nm in the assay with human FcγRIIB; 0.07 OD 405nm in the assay with human FcγRIIIA; 0.073 OD 405nm with human FcγRIIIB. Also, the response with human Siglec-1 is 0.96 OD 405nm; in assay [1], 0.33 OD 405nm.
“hexa-Fc (human IgG1-Fc with L309C/H310L and the 18-amino acid IgM tail piece) N297A; N563A”: the response with C1q was determined as 0.97 OD 405nm; with human Siglec-1, 0.15 OD 405nm; in assay [1], 0.27 OD 405nm.
Regarding “hexa-Fc (human IgG1-Fc with L309C/H310L and the 18-amino acid IgM tail piece) D221N; N563A”, the response with C1q was 2.2 OD 405nm; with human FcγRI, 2 OD 405nm; with human FcγRIIA it was 0.33 OD 405nm; in the assay with human FcγRIIB, 0.12 OD 405nm; with human FcγRIIIA it was 1.6 OD 405nm; with human FcγRIIIB, 0.1 OD 405nm. Further, the values for the response (with human Siglec-1; in assay [1]) were 1.6 OD 405nm and 0.57 OD 405nm, respectively.
In the case of “hexa-Fc (human IgG1-Fc with L309C/H310L and the 18-amino acid IgM tail piece) N563A”, the response with C1q came to 2.3 OD 405nm; in assay [1], 0.84 OD 405nm.
Consider “hexa-Fc (human IgG1-Fc with L309C/H310L and the 18-amino acid IgM tail piece) D221N; N297A; N563A”, for which the response in the assay with C1q amounted to 0.9 OD 405nm; with human Siglec-1, 1.7 OD 405nm; in assay [1], 0.37 OD 405nm.
Turning to “hexa-Fc (human IgG1-Fc with L309C/H310L and the 18-amino acid IgM tail piece) D221N”, the response with C1q amounted to 1.8 OD 405nm; with human FcγRI, 0.24 OD 405nm; with human FcγRIIA, 0.12 OD 405nm; with human FcγRIIB it was 0.08 OD 405nm; in the assay with human FcγRIIIA, 0.09 OD 405nm; in the assay with human FcγRIIIB, 0.073 OD 405nm. The response with human Siglec-1 was determined as 1.2 OD 405nm; in assay [1], 0.64 OD 405nm.
Consider “hexa-Fc (human IgG1-Fc with L309C/H310L and the 18-amino acid IgM tail piece) N297A”, for which the response with C1q worked out at 0.9 OD 405nm; with human FcγRI, 0.065 OD 405nm; with human FcγRIIA, 0.065 OD 405nm; with human FcγRIIB, 0.069 OD 405nm; with human FcγRIIIA it was 0.07 OD 405nm; with human FcγRIIIB, 0.073 OD 405nm. The response in assay [1] turned out to be 0.28 OD 405nm.
